These results are taken from patent publication US7087420B1, “Microbial β-glucuronidase genes, gene products and uses thereof” (Cambia, priority 1997, dated 2006).

Numbering of substitutions follows the chain as printed.

Format in all cases: cell-based
The subject of one assay is E. coli. Nature of the assay: GUS activity of transfectants with expression vectors, E. coli host. Set-up: key: all tested transfectants exhibit GUS activity (indicated by a +). The conditions noted are these: No SP (signal peptide). As for the experimental part: (§1) A series of expression vector constructs of three different GUS genes, E. coli GUS, Staphylococcus GUS, and the AO version of codon-optimized Staphylococcus GUS, are prepared and tested for enzymatic activity in E. coli, yeast, and plants (rice, Millin variety). […] The E. coli vector contains a sequence encoding a pelB signal peptide, the yeast vectors contain a sequence encoding either an invertase or Mat alpha signal peptide, and the plant vectors contain a sequence encoding either a glycine-rich protein (GRP) or extensin signal peptide.
(§2) The GUS genes are cloned into each of these vectors using standard recombinant techniques of isolation of a GUS-gene containing fragment and ligation into an appropriately restricted vector. The recombinant vectors are then transfected into the appropriate host and transfectants are tested for GUS activity.
(§3) Moreover, similar results are obtained regardless of the presence or absence of a signal peptide.

Assay [1] deals with plants (rice, Millin variety). The assay can be described thus: GUS activity of transfectants with expression vectors, plant host. Set-up: key: all tested transfectants exhibit GUS activity (indicated by a +). As for the experimental part: as §1, §2, §3
In another assay the test system is yeast. The assay can be described thus: GUS activity of transfectants with expression vectors, yeast host. Set-up: key: all tested transfectants exhibit GUS activity (indicated by a +). The method, then:
as §1, §2, §3

Another assay relates to KW1 cells. The assay can be described thus: Cellular localization: GUS activity in periplasm fraction, β-gal activity subtracted. The conditions noted are these: percent of total activity in periplasm fraction, expressed in E. coli, β-gal background subtracted. The source says:
Secretion index maybe calculated as the percentage of total GUS activity in periplasm or other extracellular environment less the percentage of total β-galactosidase activity found in the same extracellular environment.
Secretion of the enzyme may be verified by assaying for GUS activity in the extracellular environment. If the cells secreting GUS are gram-positive bacteria, yeasts, molds, plants, or other organisms with cell walls, activity may be assayed in the culture medium and in a cell extract, however, the protein may not be transported through the cell wall. Thus, if no or low activity of a secreted form of GUS is found in the culture medium, protoplasts made by osmotic shock or enzymatic digestion of the cell wall or other suitable procedure and the supernatant are assayed for GUS activity. […]
Cellular fractions (e.g., periplasm, spheroplast, supernatant, etc.) are prepared from KW1 cells transformed with pRAJa17.1 or a subfragment that contains the GUS gene and from E. coli cells that express β-glucuronidase. GUS activity and β-galactosidase (β-gal) activity is determined for each fraction. The percent of total activity in the periplasm fraction for GUS and β-gal (a non-secreted protein) are calculated; the amount of β-gal activity is considered background and thus is subtracted from the amount of β-glucuronidase activity. […]

For another assay, the system named is KW1. The assay can be described thus: X-GlcA staining of low-cysteine E. coli GUS muteins in KW1. The conditions noted are these: pBS backbone in KW1, staining with X-GlcA. The text has this: Single and multiple Cys muteins are constructed by site-directed mutagenesis techniques. Eight of the nine cysteine residues in E. coli GUS are changed to the corresponding residue found in human GUS based on alignment of the two protein sequences. One of the E. coli GUS cysteine residues, amino acid 463, aligns with a cysteine residue in human GUS and was not altered. The corresponding amino acids between E. coli GUS and human GUS are shown below.
The mutein GUS genes are cloned into a pBS backbone. The mutations are confirmed by diagnostic restriction site changes and by DNA sequence analysis. Recombinant vectors are transfected into KW1 and GUS activity assayed by staining with X-GlcA (5-bromo-4-chloro-3-indolyl-β-D-glucuronide).

B1: E. coli GUS: E. coli β-glucuronidase encoded by gusA, 603 amino acids, used as comparison standard (protein, UniProt P05804 1-603, looked up)
Beta-glucuronidase: MLRPVETPTREIKKLDGLWAFSLDRENCGIDQRWWESALQESRAIAVPGSFNDQFADADIRNYAGNVWYQREVFIPKGWAGQRIVLRFDAVTHYGKVWVNNQEVMEHQGGYTPFEADVTPYVIAGKSVRITVCVNNELNWQTIPPGMVITDENGKKKQSYFHDFFNYAGIHRSVMLYTTPNTWVDDITVVTHVAQDCNHASVDWQVVANGDVSVELRDADQQVVATGQGTSGTLQVVNPHLWQPGEGYLYELCVTAKSQTECDIYPLRVGIRSVAVKGEQFLINHKPFYFTGFGRHEDADLRGKGFDNVLMVHDHALMDWIGANSYRTSHYPYAEEMLDWADEHGIVVIDETAAVGFNLSLGIGFEAGNKPKELYSEEAVNGETQQAHLQAIKELIARDKNHPSVVMWSIANEPDTRPQGAREYFAPLAEATRKLDPTRPITCVNVMFCDAHTDTISDLFDVLCLNRYYGWYVQSGDLETAEKVLEKELLAWQEKLHQPIIITEYGVDTLAGLHSMYTDMWSEEYQCAWLDMYHRVFDRVSAVVGEQVWNFADFATSQGILRVGGNKKGIFTRDRKPKSAAFLLQKRWTGMNFGEKPQQGGKQ
On to B1, for which the GUS activity entry (in the assay with E. coli; in assay [1] (Extensin signal peptide); in assay [1] (GRP signal peptide); in assay [1] (No SP); in the assay with yeast (Invertase signal peptide); in the assay with yeast (Mat α signal peptide)) was “+” in each case. For the same molecule, the GUS activity result in the assay on yeast (No SP) was “+”. Further, the “GUS activity found in the periplasm” value in the assay with KW1 cells is “less than 10%”.

B2: D, E: E. coli GUS mutein, Cys 253 to Glu and Cys 262 to Ser (protein, UniProt P05804 1-603, looked up, variant C253E C262S)
Beta-glucuronidase: B1 Beta-glucuronidase with C253E, C262S
With B2, the GUS activity entry in the assay on KW1 is on record as “Yes”.
